Laboratory results: paper PMC8649762, “A Hyperthermoactive-Cas9 Editing Tool Reveals the Role of a Unique Arsenite Methyltransferase in the Arsenic Resistance System of Thermus thermophilus HB27” (mBio, 2021)
Like-named read-outs stand apart in the source and are kept apart here.

How the values were obtained:
[1] = target: T1, TtSmtB-TtArsM complex (Thermus thermophilus, UniProt Q72KG0); assay type: binding; conditions: 1:100 protein/arsenic ratio, arsenite preincubated with TtSmtB 10 min at 60 °C, co-IP buffer pH 7.5, weakens the protein-protein complex
T1 construct: gene smtB; recombinant TtSmtB (E. coli, C-terminal His tag removed) plus C-terminally His-tagged TtArsM; with Arsenite methyltransferase (ArsR family transcriptional regulator / SAM-dependent methyltransferase domain protein)

[2] = target: T2, TtArsM (TTC0109) (Thermus thermophilus, UniProt Q72LF0); assay: coupled colorimetric SAH-release methyltransferase assay, […] nm; products by GC-MS; assay type: biochemical; conditions: methyl donor; same
T2 construct: gene TT_C0109; full-length, C-terminal His tag (pET30b NdeI/HindIII), E. coli BL21-CodonPlus(DE3)-RIL
T2 sequence (Q72LF0 1-249): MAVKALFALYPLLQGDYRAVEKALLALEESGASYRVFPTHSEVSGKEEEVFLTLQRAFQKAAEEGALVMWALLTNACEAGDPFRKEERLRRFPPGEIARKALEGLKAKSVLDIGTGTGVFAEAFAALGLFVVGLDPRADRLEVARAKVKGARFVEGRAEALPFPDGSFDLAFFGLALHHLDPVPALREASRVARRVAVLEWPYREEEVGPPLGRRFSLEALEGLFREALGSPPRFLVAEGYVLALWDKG

[3] = target: T3, TtArsM (Thermus thermophilus HB27) (UniProt Q72LF0); assay: EMSA; conditions: EMSA: 20 ng parsM, 1 ug poly(dI-dC), SYBR Gold stain; buffer, salt, pH and temperature as in previous work (refs 23, 62), not given
T3 sequence: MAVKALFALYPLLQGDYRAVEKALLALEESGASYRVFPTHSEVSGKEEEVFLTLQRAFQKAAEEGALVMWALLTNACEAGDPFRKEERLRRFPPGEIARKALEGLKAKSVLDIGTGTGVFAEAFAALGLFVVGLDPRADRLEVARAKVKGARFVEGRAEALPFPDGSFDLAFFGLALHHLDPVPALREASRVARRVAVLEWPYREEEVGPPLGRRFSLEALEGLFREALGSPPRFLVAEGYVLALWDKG

[4] = target: the molecule itself; assay: SEC; 500 μg purified TtArsM on analytical Superdex PC75, 50 mM Tris-HCl pH 7.5, 0.2 M KCl; calibrated with gel filtration markers
[5] = target: T4, Recombinant TtSmtB with the His tag removed (Thermus thermophilus HB27, UniProt Q72KG0 1-123); assay: co-IP; 5 μg TtSmtB (His tag removed) and 5 μg His-tagged TtArsM in co-IP buffer (50 mM Tris-HCl pH 7.5, 150 mM NaCl, 10% glycerol, 0.1% Triton X-100), 4°C, 2 h; immunoprecipitated with anti-TtSmtB antibodies and protein A-Sepharose, blot with anti-His; with or without arsenite, arsenate, cadmium or antimony at 1:0, 1:25, 1:50, 1:100 molar ratios preincubated with TtSmtB; conditions: both partners purified
T4 construct: TtSmtB, ArsR/SmtB family transcriptional repressor of Thermus thermophilus HB27; source: E. coli BL21-CodonPlus (DE3)-RIL, pET28/TtsmtB, purified; His tag removed; not shown: His tag, C-terminal, cleaved
T4 sequence (looked up): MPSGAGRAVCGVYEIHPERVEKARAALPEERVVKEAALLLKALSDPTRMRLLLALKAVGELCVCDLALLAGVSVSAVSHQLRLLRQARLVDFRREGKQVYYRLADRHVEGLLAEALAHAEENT

O[As](O)O [arsenite]
fold decrease in complex band intensity [1]: up to 3

C[S+](CC[C@H](N)C(=O)O)C[C@H]1O[C@@H](n2cnc3c(N)ncnc32)[C@H](O)[C@@H]1O (some centres unmarked) [SAM]
coupled colorimetric SAH-release methyltransferase assay, 510 nm; products by GC [2]: formation of S-adenosylhomocysteine (SAH) from SAM after transfer of methyl group(s) on the substrate

O=[As](O)(O)O [arsenate]
fold decrease in complex band intensity ([1]; with arsenate): up to 3

GGAAGGGGAAGCGGTGTTTCTCGCCCCCGAGGCCAATCCCCCCTACGAGGAGGCGGACCAGGCGGGAAGGCGCGCGGGGAACCGCCCCGCCCTATACTTGGGGAGATG (double strand) [parsM]
binding [3]: no binding

B1: Recombinant C-terminal His-tagged TtArsM (TTC0109) (enzyme, Thermus thermophilus HB27, UniProt Q72LF0 1-249, looked up)
chain: MAVKALFALYPLLQGDYRAVEKALLALEESGASYRVFPTHSEVSGKEEEVFLTLQRAFQKAAEEGALVMWALLTNACEAGDPFRKEERLRRFPPGEIARKALEGLKAKSVLDIGTGTGVFAEAFAALGLFVVGLDPRADRLEVARAKVKGARFVEGRAEALPFPDGSFDLAFFGLALHHLDPVPALREASRVARRVAVLEWPYREEEVGPPLGRRFSLEALEGLFREALGSPPRFLVAEGYVLALWDKG
notes: TtArsM (TTC0109) of Thermus thermophilus HB27; TtarsM gene PCR amplified from the genome and cloned NdeI/HindIII into pET30b(+); predicted mass 29.1 kDa; source: E. coli BL21-CodonPlus (DE3)-RIL, pET30b(+)/TtarsM, purified (HisTrap); not shown: His tag, C-terminal, kept
stoichiometry N [4]: 2 | fold decrease of the co-IP band with arsenate (1:100 protein/arsenic ratio) against the complex without metal [5]: ≤ 3 fold | fold decrease of the co-IP band with arsenite (1:100 protein/arsenic ratio) against the complex without metal [5]: ≤ 3 fold | fold increase of the co-IP band with cadmium against the complex without metal [5]: ≤ 2 fold
